Data on 1 protein can be found in PMC3374333 (Nature neuroscience, 2012).

The data set deals with the molecule itself. Briefly: SEC. In general terms: Size exclusion chromatography separates by hydrodynamic size, large species first.

As usually defined, the stoichiometry N is the number of molecules, sites or subunits per partner or assembly.

B1: GBR1bVFT (Venus Flytrap module of the extracellular domain of human GABAB receptor subunit GBR1b) (domain or fragment, UniProt Q9UBS5-2 30-459, looked up)
chain: SHSPHLPRPHSRVPPHPSSERRAVYIGALFPMSGGWPGGQACQPAVEMALEDVNSRRDILPDYELKLIHHDSKCDPGQATKYLYELLYNDPIKIILMPGCSSVSTLVAEAARMWNLIVLSYGSSSPALSNRQRFPTFFRTHPSATLHNPTRVKLFEKWGWKKIATIQQTTEVFTSTLDDLEERVKEAGIEITFRQSFFSDPAVPVKNLKRQDARIIVGLFYETEARKVFCEVYKERLFGKKYVWFLIGWYADNWFKIYDPSINCTVDEMTEAVEGHITTEIVMLNPANTRSISNMTSQEFVEKLTKRLKRHPEETGGFQEAPLAYDAIWALALALNKTSGGGGRSGVRLEDFNYNNQTITDQIYRAMNSSSFEGVSGHVVFDASGSRMAWTLIEQLQGGSYKKIGYYDSTKDDLSWSKTDKWIGGSPPAD
Turning to B1, the “stoichiometry N” value was 2.
